Assay results published in PMC11661448, “Molecular basis for plasma membrane recruitment of PI4KA by EFR3” (Science Advances, 2024).

Tests used:
Conditions in all cases: both partners purified
[1] = target: T1, PI4KA/TTC7B/FAM126A ΔC (PI4KA complex) (human, UniProt P42356 1-2102; Q86TV6 1-843; Q9BYI3 1-308); assay: SEC; Superose 6 Increase in 150 mM NaCl, 20 mM imidazole pH 7.0, 5% glycerol, 0.5 mM TCEP; 7.19 uM PI4KA complex with 61.8 uM EFR3A, or 6.78 uM TTC7B-FAM126A with 102.3 uM EFR3A; peaks checked by SDS-PAGE
T1 construct: phosphatidylinositol 4 kinase III alpha (PI4KA), human, full length; TTC7B, human, full length; FAM126A, human, residues 1 to 308 (lacks the disordered C terminus); Dimer of heterotrimers; A His-Strep tag was cleaved with TEV protease; also called PI4KA-TTC7B-FAM126A (1 to 308); PI4KA-TTC7B-FAM126A complex; source: Sf9 (MultiBac baculovirus), co-expressed, purified (HisTrap, StrepTrap, TEV …)

TTC7B-FAM126A (1 to 308) [2] = target: T2, TTC7B-FAM126A (1 to 308) (human, UniProt Q86TV6 1-843; Q9BYI3 1-308); assay: BLI; His-MBP-EFR3A (721 to 791) at 200 nM loaded on anti-penta-His tips, TTC7B-FAM126A titrated; His-MBP responses subtracted; 25°C, 20 mM HEPES pH 7.5, 150 mM NaCl, 0.01% BSA, 0.002% Tween-20; KD by one site specific nonlinear regression of the response against concentration
T2 construct: N-terminal His10-2x Strep-TEV tag from the pOPT vector, cleaved with TEV; also called TTC7B-FAM126A ΔC; TTC7B-FAM126A dimer; source: E. coli BL21 DE3 C41, co-expressed, purified (HisTrap, StrepTrap, TEV cleavage, SEC)

TTC7B-FAM126A (1 to 308) [3] = target: T2, TTC7B-FAM126A (1 to 308); assay: BLI; His-EFR3A (wild type or mutant) at 200 nM loaded on anti-penta-His tips, dipped in TTC7B-FAM126A (wild type or mutant) at 500 nM; 25°C, 20 mM HEPES pH 7.5, 150 mM NaCl, 0.01% BSA, 0.002% Tween-20; maximum response compared with wild type

binding result (TTC7B-FAM126A (1 to 308) [3]) | Binder | other results
 | EFR3A (721 to 791) (domain or fragment, human, UniProt Q14156 721-791, looked up, EFR3A, human, residues 721 to 791; No tag cleavage is described for this protein; it was eluted from StrepTrap with desthiobiotin; also called EFR3A C terminus; EFR3A C terminal fragment; source: E. coli BL21 DE3 C41, purified (HisTrap, StrepTrap, SEC); not shown: His10, N-terminal, kept) SNTEEITFEALKKAIDTSGMEEQEKEKRRLVIEKFQKAPFEEIAAQCESKANLLHDRLAQILELTIRPPPS | binding result [1]: binds
 | His-MBP-EFR3A (721 to 791) (domain or fragment, human, UniProt Q14156 721-791, looked up, source: E. coli BL21 DE3 C41, purified (HisTrap, StrepTrap, SEC); not shown: MBP, N-terminal, kept; His10, N-terminal, kept) SNTEEITFEALKKAIDTSGMEEQEKEKRRLVIEKFQKAPFEEIAAQCESKANLLHDRLAQILELTIRPPPS | Kd (TTC7B-FAM126A (1 to 308) [2]): ~23.5 nM
binds | EFR3A (721 to 791) F728A (domain or fragment, human, UniProt Q14156 721-791, looked up, EFR3A, human, residues 721 to 791; source: E. coli BL21 DE3 C41, purified (HisTrap, StrepTrap, SEC); not shown: His10, N-terminal, kept) SNTEEITAEALKKAIDTSGMEEQEKEKRRLVIEKFQKAPFEEIAAQCESKANLLHDRLAQILELTIRPPPS | 
binds | EFR3A (721 to 791) I763A (domain or fragment, human, UniProt Q14156 721-791, looked up, EFR3A, human, residues 721 to 791; source: E. coli BL21 DE3 C41, purified (HisTrap, StrepTrap, SEC); not shown: His10, N-terminal, kept) SNTEEITFEALKKAIDTSGMEEQEKEKRRLVIEKFQKAPFEEAAAQCESKANLLHDRLAQILELTIRPPPS | 
binds | EFR3A (721 to 791) A734R (domain or fragment, human, UniProt Q14156 721-791, looked up, EFR3A, human, residues 721 to 791; source: E. coli BL21 DE3 C41, purified (HisTrap, StrepTrap, SEC); not shown: His10, N-terminal, kept) SNTEEITFEALKKRIDTSGMEEQEKEKRRLVIEKFQKAPFEEIAAQCESKANLLHDRLAQILELTIRPPPS | 
binds | EFR3A (721 to 791) K732E (domain or fragment, human, UniProt Q14156 721-791, looked up, EFR3A, human, residues 721 to 791; source: E. coli BL21 DE3 C41, purified (HisTrap, StrepTrap, SEC); not shown: His10, N-terminal, kept) SNTEEITFEALEKAIDTSGMEEQEKEKRRLVIEKFQKAPFEEIAAQCESKANLLHDRLAQILELTIRPPPS | 
